The numbers were not newly measured in paper PMC10570509, which cites them from elsewhere.

The series deals with OSMRβ (Homo sapiens) (UniProt Q99650).
UniProt Q99650, sequence (Q99650 28-740): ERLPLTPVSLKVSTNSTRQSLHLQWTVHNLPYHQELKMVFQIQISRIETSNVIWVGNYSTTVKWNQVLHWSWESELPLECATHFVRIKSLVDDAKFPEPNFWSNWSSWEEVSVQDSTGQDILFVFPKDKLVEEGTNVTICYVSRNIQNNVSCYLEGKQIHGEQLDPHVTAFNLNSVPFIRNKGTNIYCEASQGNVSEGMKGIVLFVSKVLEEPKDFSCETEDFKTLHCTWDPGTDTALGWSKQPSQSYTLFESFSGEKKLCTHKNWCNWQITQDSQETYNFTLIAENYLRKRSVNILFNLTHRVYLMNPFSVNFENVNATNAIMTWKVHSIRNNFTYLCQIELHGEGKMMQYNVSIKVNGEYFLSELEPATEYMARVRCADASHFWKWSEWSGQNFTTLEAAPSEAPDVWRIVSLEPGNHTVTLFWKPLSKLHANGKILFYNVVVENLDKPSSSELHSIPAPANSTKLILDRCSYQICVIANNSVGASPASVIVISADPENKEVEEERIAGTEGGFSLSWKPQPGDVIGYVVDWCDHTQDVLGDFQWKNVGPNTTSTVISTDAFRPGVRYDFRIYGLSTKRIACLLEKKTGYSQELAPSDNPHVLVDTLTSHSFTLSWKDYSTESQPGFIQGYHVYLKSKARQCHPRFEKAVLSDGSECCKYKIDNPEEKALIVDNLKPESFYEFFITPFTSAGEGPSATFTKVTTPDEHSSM

What is called Kd is a measure of binding affinity in units of concentration. Take Oncostatin M (from UniProt P13725): the Kd is 0.15 nM.
